From the supplement of paper PMC9732359
± gives the uncertainty stated by the source.

Experiment: protein stability index of a GFP-peptide fusion (yeast GPS) (PSI 1-4); higher = more stable; sorted into four equal gates, so the index is relative within each strain
Method in brief: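 Tiled 17-residue yeast protein peptides were fused downstream of GFP in a plasmid that also expresses Cherry, and the pooled library was carried in yeast. Mid-log cultures in leucine-free medium were sorted into four equal gates by GFP/Cherry fluorescence ratio, and plasmids from each gate were PCR-amplified and Illumina-sequenced, with reads assigned to strains by barcodes. The protein stability index for each peptide was each gate's read frequency times its gate number, summed.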

Row | Sequence | protein stability index (doa10∆) | protein stability index (pdr5∆) | protein stability index (san1∆) | protein stability index (ubr1∆)
1 | VGDIVDIKANGSIQKGM [RPL21A] | 2.35 ± 0.072 | 1.9 ± 0.065 | 1.62 ± 0.089 | 2.19 ± 0.047
2 | RLTMGNVFTPEISSQIE [RRI2] | 2.7 ± 0.11 | 3.06 ± 0.079 | 2.95 ± 0.1 | 2.92 ± 0.09
3 | LLRNLESKMRQQEAKYR [YDL088C/ASM4] | 1.22 ± 0.058 | 1.61 ± 0.072 | 1.39 ± 0.14 | 1.36 ± 0.059
4 | EYKLRSLTLSFIRHVAK [ECM29] | 2.49 ± 0.068 | 2.54 ± 0.062 | 2.77 ± 0.049 | 2.81 ± 0.046
5 | AATMTSAPPPALPHVEI [RGR1] | 2.52 ± 0.072 | 2.83 ± 0.083 | 2.49 ± 0.079 | 2.3 ± 0.055
6 | EGFAADDEPTTPAELVG [FAS1] | 3.3 ± 0.09 | 3.19 ± 0.092 | 3.2 ± 0.071 | 3.19 ± 0.076
7 | ARNVTFDSLRNFIVHSP [GRR1] | 2.14 ± 0.063 | 2.35 ± 0.057 | 2.25 ± 0.08 | 1.94 ± 0.041
8 | LNEITNSKVNKLNIETM [DSN1] | 2.81 ± 0.16 | 2.9 ± 0.097 | 2.54 ± 0.077 | 3.08 ± 0.051
9 | LHQHVVLKCLKSLESQR [RPC34] | 2.77 ± 0.11 | 2.58 ± 0.083 | 2.41 ± 0.095 | 2.53 ± 0.11
10 | TKSKNKTLIGLQGIVIW [POP4] | 2.93 ± 0.05 | 2.76 ± 0.051 | 2.76 ± 0.044 | 2.73 ± 0.034
11 | HTLCNRCGRRSFHVQKK [RPL37A] | 2.98 ± 0.035 | 2.72 ± 0.048 | 2.83 ± 0.031 | 2.85 ± 0.029
12 | KNVNIEDITEPKPDKPS [ESC2] | 2.96 ± 0.094 | 3.1 ± 0.099 | 2.51 ± 0.1 | 2.94 ± 0.13
13 | LLSEHDDHNGEVWSVSW [YGL100W/SEH1] | 2.62 ± 0.068 | 2.8 ± 0.069 | 2.36 ± 0.079 | 2.66 ± 0.1
14 | VEDELTESIALSSMRFK [RRI1] | 3.21 ± 0.067 | 3.38 ± 0.051 | 3.21 ± 0.062 | 3.28 ± 0.051
15 | DFREKALYIAMMTRRVV [RET1] | 1.18 ± 0.077 | 1.58 ± 0.12 |  | 1.37 ± 0.074
16 | GGEKTVAALALLFAINS [SMC1] | 1.2 ± 0.078 | 1.27 ± 0.092 | 1.12 ± 0.23 | 1.9 ± 0.14
17 | PDKDYLLSIPISCPLIG [FAS1] | 1.28 ± 0.19 | 1.64 ± 0.13 | 1.25 ± 0.19 | 1.07 ± 0.077
18 | TSLFGSSSAQQTKSNGT [YJL041W/NSP1] | 3.23 ± 0.11 | 3.4 ± 0.098 | 2.71 ± 0.13 | 3.19 ± 0.073
19 | YKYKMRYVYAHFPINVN [RPL9A] | 2.29 ± 0.051 | 2.29 ± 0.053 | 2.08 ± 0.078 | 2.51 ± 0.041
20 | LSPPEFLFHAISGREGL [RPO31] | 2.17 ± 0.047 | 1.79 ± 0.053 | 1.48 ± 0.14 | 1.63 ± 0.046
21 | DDEEYDYNDVEVNSKKK [BRR2] | 3.3 ± 0.051 | 3.18 ± 0.051 | 3.32 ± 0.053 | 3.33 ± 0.036
22 | INSGTFVKVTKATLELL [RPL7A] | 3.01 ± 0.1 | 2.92 ± 0.092 | 2.65 ± 0.12 | 2.9 ± 0.12
23 | HHDYRSYYGIVCLMQIS [RRP6] | 2.03 ± 0.085 | 1.67 ± 0.067 | 1.32 ± 0.12 | 1.68 ± 0.076
24 | LYHHTTKTILSGTDGST [SRP72] | 3.04 ± 0.068 | 2.82 ± 0.051 | 2.49 ± 0.088 | 2.83 ± 0.043
25 | LHGLTPTAKDVEVIKQL [GAL11] | 3.08 ± 0.078 | 2.64 ± 0.13 |  | 2.26 ± 0.078
